# Test results as given in patent US20240324599A1, “PESTICIDAL ENZYMES FOR USE ON NEMATODES, INSECTS, AND MOLLUSKS” (priority 2023, published 2024).
# B1: Geobacillus stearothermophilus (a.k.a B. Stearothermophilus) Esterase (protein, listed as Bacillus stearothermophilus, listed as Geobacillus stearothermophilus)
# chain: MKIVPPKPFFFEAGERAVLLLHGFTGNSADVRMLGRFLESKGYTCHAPIYKGHGVPPEELVHTGPDDWWQDVMNGYEFLKNKGYEKIAVAGLSLGGVFSLKLGYTVPIEGIVTMCAPMYIKSEETMYEGVLEYAREYKKREGKSEEQIEQEMEKFKQTPMKTLKALQELIADVRDHLDLIYAPTFVVQARHDEMINPDSANIIYNEIESPVKQIKWYEQSGHVITLDQEKDQLHEDIYAFLESLDW
# B2: Rhizopus oryzae Esterase (protein, listed as Rhizopus oryzae)
# chain: SDGGKVVAATTAQIQEFTKYAGIAATAYCRSVVPGNKWDCVQCQKWVPDGKIITTFTSLLSDTNGYVLRSDKQKTIYLVFRGTNSFRSAITDIVFNFSDYKPVKGAKVHAGFLSSYEQVVNDYFPVVQEQLTANPTYKVIVTGHSLGGAQALLAGMDLYQREPRLSPKNLSIFTVGGPRVGNPTFAYYVESTGIPFQRTAHKRDIVPHVPPQSFGFLHPGVESWIKSGTSNVQICTSEIETKDCSNSIVPFTSILDHLSYFDINEGSCL
# modifications: Rhizopus cf. oryzae
# B3: PpII Lipase: free lipase from porcine pancreas Type II (PpII) (protein, UniProt P00591 1-450, looked up)
# Pancreatic triacylglycerol …: SEVCFPRLGCFSDDAPWAGIVQRPLKILPWSPKDVDTRFLLYTNQNQNNYQELVADPSTITNSNFRMDRKTRFIIHGFIDKGEEDWLSNICKNLFKVESVNCICVDWKGGSRTGYTQASQNIRIVGAEVAYFVEVLKSSLGYSPSNVHVIGHSLGSHAAGEAGRRTNGTIERITGLDPAEPCFQGTPELVRLDPSDAKFVDVIHTDAAPIIPNLGFGMSQTVGHLDFFPNGGKQMPGCQKNILSQIVDIDGIWEGTRDFVACNHLRSYKYYADSILNPDGFAGFPCDSYNVFTANKCFPCPSEGCPQMGHYADRFPGKTNGVSQVFYLNTGDASNFARWRYKVSVTLSGKKVTGHILVSLFGNEGNSRQYEIYKGTLQPDNTHSDEFDSDVEVGDLQKVKFIWYNNNVINPTLPRVGASKITVERNDGKVYDFCSQETVREEVLLTLNPC
# Columns and labels:
# Format in all cases: in vivo
# soybean = test: Field trial: Geobacillus stearothermophilus esterase soybean seed treatment, yield; settings: text to Table 58; 0.5 fl oz/unit
# Description: 0.5 fl oz/unit of Esterase (carboxylesterase) from Geobacillus/Bacillus stearothermophilus (SEQ ID NO:252) was coated onto soybean seeds treated with Evergol Energy (prothioconazole, metalaxyl, and penflufen fungicides) at 1 fl oz/cwt, Alias 4F (imidacloprid, insecticide) at 1.25 fl oz/unit, Sensient Red (colorant) at 0.5 fl oz/cwt, and Seedwork 4037L polymer at 1.5 fl oz/cwt. A control treatment without esterase enzyme was also created. The seed treated with esterase and control seed was planted in replicated trials distributed across 6 replicated plots with 4 replicates of 60 ft2 each at each site.
# corn = test: Greenhouse trial: Rhizopus oryzae Esterase corn seed treatment, plant height
# Description: Rhizopus oryzae Esterase (carboxylesterase, SEQ ID NO:253) was coated onto 6049 V2 hybrid corn seeds. A water only control treatment without esterase enzyme was also created. The seed treated with esterase and control seed was planted in replicated greenhouse trials on promix soil with a fluctuating day/night temperature of 78° F./75° F., and 13 hours of light daily. Plant heights were measured on day 10 for each plant emerged from the soil.
# [1] = test system: Garden snails (Cornu aspersum); test: Antifeedant and molluscicide bioassay (artificial diet): consumption, survival, weight gain; settings: n = 12, 12 days
# Description: Two-week old garden snails (Cornu aspersum) and full-size black gloss snails (Zonitoides nitidus) were maintained in a semi-darkened tank at 68-70° F. at high humidity, provided with a wet sponge in a petri dish. Snails were transferred to fresh tank every 2-3 days, and they were feed ad libitum with cucumber slices supplemented with calcium carbonate tablets. Individuals were reared in the laboratory for at least a week to fully acclimate to laboratory conditions prior to testing. The individuals ranged between 3 weeks to 2 months old at the time of bioassay.
# Filter-sterilized recombinant enzymes including proteases and lipases were prepared as indicated in Example 25. Corresponding controls (e.g., buffer, fermentation of non-recombinant strain, water) were be prepared accordingly. Enzymes were dried by mixing them with Polyvinylpyrrolidone K30 (Thermo Sci Chem, Cat #227545000) at a ratio of 60 mg PVP per mL of enzymes, dispersed on a petri dish and allowed to dry in a bio-safety hood for 24-48 hours.
# The treatments were prepared by mixing 0.4 g of dry enzyme and 1 gram of artificial diet mix. The artificial diet mix consisted of flour supplemented with 30 mg sucrose per gram of flour. Control diet contained 0.4 g of PVP and 1 g of artificial diet mix.
# 12 snails were randomly assigned to each treatment, labeled with permanent marker on the top of the shell for identification, and their weight (mg) was recorded before treatment. Then snails were transferred to dry plastic containers containing two petri dishes. Humidity was maintained with a folded and soaked light duty tissue paper in one petri dish. 1 g of treatment was provided as a thin layer on the other petri dish and was replaced every other day. At the time of treatment replacement, treatment consumption, weight, and mortality were recorded.
# [2] = test system: Fall armyworm (Spodoptera frugiperda); test: Diet-surface overlay (DSO) bioassay; settings: Table 46
# Description: Diet-surface overlay bioassays are conducted with artificial diet mixes without antibiotics in 1.5 cm^2 cell bioassay trays(s). Artificial diets are commercially available from Southland Products Inc. Diets were prepared by dispersing 0.5 mL of molten diet to each 1.5 cm^2 cell. After solidification, 0.1 mL enzyme treatments were dispersed on top of diet in each cell and the tray was gently rocked in an orbital shaker to spread the liquid uniformly over the diet surface. Trays were placed under clean airflow until the surface of each cell was uniformly dried. One or two 16-cell sections were used per treatment (the number in larvae treated was 16 or 32).
# One healthy first instar larva was placed into each treatment cell, each 16-cell section was covered with a re-sealable lid and incubated at 27° C. and light-dark period of 16:8 hrs. After 7 days, and according to the species, the number of individuals in the following developmental categories was recorded.
# Negative/untreated controls were treated with filtered water and positive controls were treated with lethal doses of Bacillus thuringiensis subsp. Kurstaki (Btk) spores at 1000 ppm.
molecule,measurement,setting,value
B1,"yield versus base seed treatment package, in words",soybean,increased the yield
B2,Height as % of Control,"corn; Table 60, corn seed treatment 0.5 fl oz/unit, plant height on day 10, water control 100%",103.7%
same,"growth rate of corn, in words",corn; text to Table 60,increase the growth rate
B3,Dead Snails,"[1]; Table 62, lipases, garden snail, control diet 0",0
same,Diet consumption,"[1]; Table 62, lipases, garden snail, control diet 1.16",0.82 gr
same,"food consumption, in words","[1]; text to Table 62, lipases",consistent reduction in food consumption
same,Dead Larva,"[2]; individuals of n = 32 after 7 days, U/mL diet: Bc 3.8, Pf 5.2, PpII 0.4, Rm 2.8, Lipase nd, water 2",0
same,Larva Stage I,"[2]; n = 32, doses as E92, water 0",2
same,Larva Stage II,"[2]; n = 32, doses as E92, water 0",5
same,Larva Stage III,"[2]; n = 32, doses as E92, water 0",15
same,Larva Stage IV,"[2]; n = 32, doses as E92, water 30",10
